Experimental data as given in PMC10138300, “Molecular Recognition of Methacryllysine and Crotonyllysine by the AF9 YEATS Domain” (International Journal of Molecular Sciences, 2023).
Starred links: 1 amine or outer side, 2 acyl side, 3 side chain; linkers in the order of their positions; H or OH if unused. Non-standard residues stand in square brackets, D forms with d. No end group written: not given here. Kmea = methacryllysine, C=C(C)C(=O)NCCCC[C@H](N[*:1])C(=O)[*:2]; Kcr = crotonyllysine, C/C=C/C(=O)NCCCC[C@H](N[*:1])C(=O)[*:2]

Columns and labels:
[1] = target: T1, human AF9 YEATS domain (residues 1–138) (Homo sapiens, UniProt P42568); test: ITC binding assay with AF9 YEATS domain; settings: MicroCal PEAQ-ITC, 50 mM NaH2PO4, 500 mM NaCl, 2 mM EDTA, 2 mM β-ME, H3 peptides 1.1–2.7 mM titrated into AF9 YEATS 94–205 μM, One Set of Sites model, n = 3, errors as standard error (SE)
T1 construct: containing the cloned AF9 YEATS gene (amino acids 1–138) with an N-terminal 6xHis tag; 6xHis (N); made in house; host or cells: E. coli Rosetta 2(DE3)pLysS
T1 sequence (P42568 1-138): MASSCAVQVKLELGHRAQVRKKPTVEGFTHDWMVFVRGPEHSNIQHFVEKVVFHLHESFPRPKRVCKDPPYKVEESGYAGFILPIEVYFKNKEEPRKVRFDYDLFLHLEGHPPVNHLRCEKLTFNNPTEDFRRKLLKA
Method: The plasmid was transformed into Rosetta 2(DE3)pLysS E. coli cells (Novagen, Darmstadt, Germany) by the heat-shock method. Transformed cells were cultivated at 37 °C in TB medium supplemented with 50 μg/mL kanamycin and 35 μg/mL chloramphenicol. The cultivation continued until the culture’s OD600 reached 1.5. Then the culture was cooled down to room temperature (RT), and the protein expression was induced by adding isopropyl β-d-1-thiogalactopyranoside (IPTG) at a final concentration of 0.3 mM. The cultivation was continued for 18 h at RT. After the protein expression was completed, the cells were harvested by centrifuging the culture at 6500 rpm at 4 °C for 15 min. The pellets were then resuspended in cell lysis buffer containing 50 mM Tris, 500 mM NaCl, 30 mM imidazole, at pH 7.4, 1 mM phenylmethylsulfonyl fluoride (PMSF), 2 mM β-mercaptaethanol (β-ME), and 20 μg/mL DNase I. Subsequently, the cells were lysed using the One Shot Cell Disrupter (Constant Systems LTD, Daventry, UK), and the cell debris was settled down by centrifuging the lysate at 19500 rpm at 4 °C for 20 min. […]
ITC experiments were performed using a MicroCal PEAQ-ITC instrument (Malvern Panalytical, Malvern, UK). […] The concentrations of all histone peptides and proteins were measured by UV analysis on a Thermo-Fisher Nanodrop spectrophotometer in buffer using λmax at 215 nm and 280 nm, respectively. […]

[2] = target: T2, recombinant human AF9 YEATS domain (residues 1–138) (human, UniProt P42568 1-138); test: ITC; H3 peptides (1.1–2.7 mM) titrated into AF9 YEATS (94–205 μM), 19 injections; 50 mM NaH2PO4, 500 mM NaCl, 2 mM EDTA, 2 mM β-ME; One Set of Sites model; triplicates; settings: both partners purified
T2 construct: AF9 (MLLT3), human, YEATS domain, amino acids 1-138, in pET28b(+); Plasmid was a gift from Prof; No step that removes the tag is described; the final SEC product is called 6xHis AF9 YEATS, so the tag was probably still on in ITC; also called 6xHis-AF9 YEATS; source: E. coli Rosetta 2(DE3)pLysS, purified (HisTrap Ni-NTA, Superdex 75 SEC)
T2 sequence (looked up): T1 sequence (P42568 1-138)

Molecule: C/C=C/C(=O)NCCCC[C@H](NC(=O)[C@H](CCCNC(=N)N)NC(=O)[C@H](C)NC(=O)[C@@H](NC(=O)[C@H](CCC(N)=O)NC(=O)[C@H](CCCCN)NC(=O)[C@@H](N)[C@@H](C)O)[C@@H](C)O)C(=O)N[C@@H](CO)C(=O)N[C@H](C(=O)NCC(=O)NCC(=O)N[C@@H](CCCCN)C(=O)N[C@@H](C)C(N)=O)[C@@H](C)O [H3K9cr]
- N (Stoichiometry) [1]: 0.98 ± 0.01

B1: histone H3K18mea peptide (residues 10–25) (peptide)
peptide: STGGKAPRKQLATKAA
modifications: methacryllysine (Kmea) at K18
notes: histone H3, residues 10-25; the stretch is the same in H3.1, H3.2 and H3.3; Made on Rink amide resin, so the C-terminus is probably an amide; last residue coupled as N-alpha-Boc amino acid, so the N-terminus is probably free; source: synthetic peptide (Fmoc-SPPS on Rink amide resin, RP-HPLC purified)
- Kd [2]: 114 µM

B2: histone H3K18cr peptide (residues 10–25) (peptide)
peptide: STGGKAPRKQLATKAA
modifications: crotonyllysine (Kcr) at K18
notes: histone H3, residues 10-25; the stretch is the same in H3.1, H3.2 and H3.3; Made on Rink amide resin, so the C-terminus is probably an amide; last residue coupled as N-alpha-Boc amino acid, so the N-terminus is probably free; also called H3K18Kcr; source: synthetic peptide (Fmoc-SPPS on Rink amide resin, RP-HPLC purified)
- Kd [2]: 21 µM

B3: histone H3K9mea peptide (residues 3–15) (peptide)
peptide: TKQTAR[Kmea]STGGKA-NH2
notes: histone H3, residues 3-15; the stretch is the same in H3.1, H3.2 and H3.3; Made on Rink amide resin, so the C-terminus is probably an amide; last residue coupled as N-alpha-Boc amino acid, so the N-terminus is probably free; source: synthetic peptide (Fmoc-SPPS on Rink amide resin, RP-HPLC purified)
- Kd [2]: 59 µM
- stoichiometry N [2]: 1.02

B4: histone H3K9cr peptide (residues 3–15) (peptide)
peptide: TKQTAR[Kcr]STGGKA-NH2
notes: as for B3
- Kd [2]: 11 µM
- stoichiometry N [2]: 0.98
